Test results reported in patent publication US20160200782A1 (MOERAE MATRIX, published 2016).

T1: NEK11(h) (human, UniProt Q8NG66 1-645, limits assumed)
T1 sequence (looked up): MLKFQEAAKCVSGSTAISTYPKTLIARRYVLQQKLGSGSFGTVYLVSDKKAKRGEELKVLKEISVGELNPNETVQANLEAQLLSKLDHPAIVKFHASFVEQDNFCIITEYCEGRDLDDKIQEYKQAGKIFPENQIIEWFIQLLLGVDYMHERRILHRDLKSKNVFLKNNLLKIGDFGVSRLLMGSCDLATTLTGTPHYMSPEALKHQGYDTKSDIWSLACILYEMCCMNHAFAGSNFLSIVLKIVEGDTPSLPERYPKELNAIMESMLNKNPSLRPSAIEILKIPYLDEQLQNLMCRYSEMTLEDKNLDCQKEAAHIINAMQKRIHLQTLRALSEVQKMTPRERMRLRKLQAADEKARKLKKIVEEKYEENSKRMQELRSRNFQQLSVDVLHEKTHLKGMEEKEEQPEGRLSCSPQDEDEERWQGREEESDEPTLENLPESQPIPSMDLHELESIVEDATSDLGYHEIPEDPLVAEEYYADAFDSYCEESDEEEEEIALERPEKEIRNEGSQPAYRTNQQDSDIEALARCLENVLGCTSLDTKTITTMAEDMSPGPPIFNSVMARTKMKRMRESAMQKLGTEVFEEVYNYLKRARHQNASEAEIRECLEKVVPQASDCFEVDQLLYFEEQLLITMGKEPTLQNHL

T2: Ax1(h) (human, UniProt P30530 473-894, limits assumed)
T2 sequence (looked up): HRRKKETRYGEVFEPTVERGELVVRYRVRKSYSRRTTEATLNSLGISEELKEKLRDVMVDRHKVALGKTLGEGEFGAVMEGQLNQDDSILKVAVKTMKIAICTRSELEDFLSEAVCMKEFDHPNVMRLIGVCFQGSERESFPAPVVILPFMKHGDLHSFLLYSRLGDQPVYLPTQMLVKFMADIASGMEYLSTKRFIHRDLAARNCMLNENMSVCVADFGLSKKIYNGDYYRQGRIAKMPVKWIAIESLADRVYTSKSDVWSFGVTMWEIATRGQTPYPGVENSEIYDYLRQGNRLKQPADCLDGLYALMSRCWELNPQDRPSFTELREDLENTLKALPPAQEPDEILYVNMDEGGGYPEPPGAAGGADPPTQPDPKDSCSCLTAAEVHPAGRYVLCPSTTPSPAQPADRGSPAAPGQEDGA

T3: SGK2(h) (human, UniProt Q9HBY8 1-367, limits assumed)
T3 sequence (looked up): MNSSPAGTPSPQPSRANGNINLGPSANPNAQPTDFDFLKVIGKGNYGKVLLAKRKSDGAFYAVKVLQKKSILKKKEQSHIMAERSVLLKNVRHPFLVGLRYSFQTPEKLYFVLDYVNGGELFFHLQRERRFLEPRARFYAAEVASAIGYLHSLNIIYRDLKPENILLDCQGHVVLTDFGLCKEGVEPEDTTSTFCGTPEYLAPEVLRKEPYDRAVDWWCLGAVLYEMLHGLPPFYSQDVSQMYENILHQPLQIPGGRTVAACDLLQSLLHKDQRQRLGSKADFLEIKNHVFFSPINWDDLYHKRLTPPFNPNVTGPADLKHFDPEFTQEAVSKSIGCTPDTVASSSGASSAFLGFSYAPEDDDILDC

T4: Ret(V804M)(h) (human, UniProt P07949 658-1114, limits assumed)
T4 sequence (looked up): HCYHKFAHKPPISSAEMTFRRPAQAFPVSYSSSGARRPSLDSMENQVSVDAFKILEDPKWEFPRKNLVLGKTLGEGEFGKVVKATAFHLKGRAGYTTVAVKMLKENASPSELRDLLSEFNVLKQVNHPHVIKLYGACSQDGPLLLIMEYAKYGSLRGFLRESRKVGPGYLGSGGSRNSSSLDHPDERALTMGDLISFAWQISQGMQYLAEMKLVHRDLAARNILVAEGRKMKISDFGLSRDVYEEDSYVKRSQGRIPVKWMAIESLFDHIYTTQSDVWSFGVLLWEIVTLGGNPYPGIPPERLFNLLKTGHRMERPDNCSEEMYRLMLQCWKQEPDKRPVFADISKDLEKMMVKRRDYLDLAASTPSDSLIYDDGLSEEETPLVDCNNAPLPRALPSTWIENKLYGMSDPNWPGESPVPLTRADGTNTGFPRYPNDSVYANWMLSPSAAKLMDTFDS

T5: EphB1(h) (human, UniProt P54762 564-984, limits assumed)
T5 sequence (looked up): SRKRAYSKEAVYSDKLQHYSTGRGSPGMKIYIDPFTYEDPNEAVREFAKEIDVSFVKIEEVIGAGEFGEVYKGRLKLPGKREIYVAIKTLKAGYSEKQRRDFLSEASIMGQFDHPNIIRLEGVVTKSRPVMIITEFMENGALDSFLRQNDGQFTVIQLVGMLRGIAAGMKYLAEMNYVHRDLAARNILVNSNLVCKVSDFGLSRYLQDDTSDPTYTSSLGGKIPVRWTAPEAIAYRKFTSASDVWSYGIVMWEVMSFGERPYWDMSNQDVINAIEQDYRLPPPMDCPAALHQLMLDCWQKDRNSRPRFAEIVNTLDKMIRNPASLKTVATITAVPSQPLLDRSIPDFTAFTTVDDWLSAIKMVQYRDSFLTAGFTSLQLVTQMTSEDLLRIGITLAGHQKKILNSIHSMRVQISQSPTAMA


How the values were obtained:
Assay in all cases: cell-based or functional assay
[1] = biological target: T1, NEK11(h)
[2] = biological target: T2, Ax1(h)
[3] = biological target: T3, SGK2(h)
[4] = biological target: NEK6(h) (human, UniProt Q9HC98 1-313)
[5] = biological target: PAK6(h) (human, UniProt Q9NQU5 1-681, limits assumed)
[6] = biological target: ROCK-I(h) (human, UniProt Q13464 17-535)
[7] = biological target: T4, Ret(V804M)(h)
[8] = biological target: MEK1(h) (human, UniProt Q02750 1-393, limits assumed)
[9] = biological target: CaMKIIβ(h) (human, UniProt Q13554 1-666, limits assumed)
[10] = biological target: CaMKIIγ(h) (human, UniProt Q13555 1-558, limits assumed)
[11] = biological target: T5, EphB1(h)
[12] = biological target: Met(D1246H)(h) (human, UniProt P08581-2 974-1408, limits assumed)
Note: test concentration or dose not given here.

Sequence of CaMKIIγ(h) (Q13555 whole entry): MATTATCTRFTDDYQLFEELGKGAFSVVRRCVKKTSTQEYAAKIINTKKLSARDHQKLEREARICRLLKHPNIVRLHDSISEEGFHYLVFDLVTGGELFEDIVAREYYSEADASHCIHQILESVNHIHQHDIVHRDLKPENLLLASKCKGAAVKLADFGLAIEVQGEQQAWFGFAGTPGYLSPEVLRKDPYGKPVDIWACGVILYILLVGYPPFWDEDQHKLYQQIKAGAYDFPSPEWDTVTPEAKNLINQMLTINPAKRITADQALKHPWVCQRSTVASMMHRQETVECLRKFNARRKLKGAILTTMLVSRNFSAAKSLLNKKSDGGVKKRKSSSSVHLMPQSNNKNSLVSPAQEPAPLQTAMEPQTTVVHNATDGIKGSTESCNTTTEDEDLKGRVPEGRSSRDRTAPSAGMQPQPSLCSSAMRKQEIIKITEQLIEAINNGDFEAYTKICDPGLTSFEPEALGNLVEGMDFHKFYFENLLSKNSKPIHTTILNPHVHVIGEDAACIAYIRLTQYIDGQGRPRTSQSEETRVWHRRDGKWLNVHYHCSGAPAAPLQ
Sequence of NEK6(h) (Q9HC98 whole entry): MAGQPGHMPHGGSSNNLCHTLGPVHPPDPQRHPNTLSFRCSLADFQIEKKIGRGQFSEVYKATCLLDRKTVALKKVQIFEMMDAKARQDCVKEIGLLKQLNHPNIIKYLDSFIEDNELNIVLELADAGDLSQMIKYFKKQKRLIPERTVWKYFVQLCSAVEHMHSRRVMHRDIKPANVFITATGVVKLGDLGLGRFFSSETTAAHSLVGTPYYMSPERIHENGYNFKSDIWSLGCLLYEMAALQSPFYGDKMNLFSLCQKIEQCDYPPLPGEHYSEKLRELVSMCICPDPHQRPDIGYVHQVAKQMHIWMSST
Sequence of PAK6(h) (Q9NQU5 whole entry): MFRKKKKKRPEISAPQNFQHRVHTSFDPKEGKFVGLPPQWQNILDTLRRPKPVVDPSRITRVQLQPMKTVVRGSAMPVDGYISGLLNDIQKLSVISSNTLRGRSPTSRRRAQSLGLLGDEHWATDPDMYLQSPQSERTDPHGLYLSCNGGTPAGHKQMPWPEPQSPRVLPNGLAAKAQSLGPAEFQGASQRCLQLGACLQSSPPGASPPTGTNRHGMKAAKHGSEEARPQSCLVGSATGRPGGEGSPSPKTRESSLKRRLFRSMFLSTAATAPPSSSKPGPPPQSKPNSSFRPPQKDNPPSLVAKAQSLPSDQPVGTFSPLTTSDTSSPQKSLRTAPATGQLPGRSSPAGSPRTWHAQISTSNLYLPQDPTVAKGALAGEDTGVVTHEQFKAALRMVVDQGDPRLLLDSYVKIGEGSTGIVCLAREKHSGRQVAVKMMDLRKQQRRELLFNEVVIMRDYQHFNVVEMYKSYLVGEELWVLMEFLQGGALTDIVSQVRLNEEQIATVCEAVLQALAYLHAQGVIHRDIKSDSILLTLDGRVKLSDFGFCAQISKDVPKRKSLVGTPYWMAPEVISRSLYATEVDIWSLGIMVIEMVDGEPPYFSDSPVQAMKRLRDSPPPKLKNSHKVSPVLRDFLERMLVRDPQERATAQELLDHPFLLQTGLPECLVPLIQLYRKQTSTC
Sequence of ROCK-I(h) (Q13464 17-535 limits assumed): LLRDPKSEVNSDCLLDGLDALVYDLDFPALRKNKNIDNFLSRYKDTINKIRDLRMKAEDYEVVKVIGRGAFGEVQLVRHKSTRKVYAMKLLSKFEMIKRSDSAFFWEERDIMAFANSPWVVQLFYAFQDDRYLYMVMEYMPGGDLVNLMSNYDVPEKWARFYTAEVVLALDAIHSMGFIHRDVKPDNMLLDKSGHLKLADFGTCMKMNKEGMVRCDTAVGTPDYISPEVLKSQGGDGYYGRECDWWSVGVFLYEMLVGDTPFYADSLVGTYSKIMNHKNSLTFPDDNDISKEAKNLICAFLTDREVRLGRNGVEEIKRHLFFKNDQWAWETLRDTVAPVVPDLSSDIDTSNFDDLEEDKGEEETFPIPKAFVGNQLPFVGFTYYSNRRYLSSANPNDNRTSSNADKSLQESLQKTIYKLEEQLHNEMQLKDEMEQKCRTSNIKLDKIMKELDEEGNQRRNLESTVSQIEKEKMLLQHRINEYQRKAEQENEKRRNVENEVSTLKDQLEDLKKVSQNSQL
Sequence of CaMKIIβ(h) (Q13554 whole entry): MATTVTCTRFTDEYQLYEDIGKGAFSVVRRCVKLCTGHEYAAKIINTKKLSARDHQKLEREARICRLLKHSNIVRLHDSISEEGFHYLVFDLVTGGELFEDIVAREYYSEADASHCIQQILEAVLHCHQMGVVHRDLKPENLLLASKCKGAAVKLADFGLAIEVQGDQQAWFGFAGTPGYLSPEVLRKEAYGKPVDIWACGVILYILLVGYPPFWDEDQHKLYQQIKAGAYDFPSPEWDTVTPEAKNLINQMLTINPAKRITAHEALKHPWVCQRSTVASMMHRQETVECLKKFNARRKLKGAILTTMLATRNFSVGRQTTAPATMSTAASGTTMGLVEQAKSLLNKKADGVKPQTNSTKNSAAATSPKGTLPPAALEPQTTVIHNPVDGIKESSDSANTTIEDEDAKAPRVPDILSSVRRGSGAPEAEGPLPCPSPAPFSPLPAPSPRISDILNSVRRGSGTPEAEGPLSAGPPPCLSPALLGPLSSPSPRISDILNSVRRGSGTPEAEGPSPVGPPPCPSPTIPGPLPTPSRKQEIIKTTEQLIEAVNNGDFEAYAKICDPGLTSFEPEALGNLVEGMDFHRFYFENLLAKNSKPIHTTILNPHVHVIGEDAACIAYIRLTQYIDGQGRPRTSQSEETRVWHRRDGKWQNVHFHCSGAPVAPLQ

Binder	% activity [1]	% activity [2]	% activity [3]	% activity [4]	% activity [5]	% activity [6]	% activity [7]	% activity [8]	% activity [9]	% activity [10]	% activity [11]	% activity [12]
KAFAKLAARLYRKALARQLGVAA [MMI-0400]	33%	41%	98%	85%	100%	73%	87%	77%	11%	3%	58%	68%
FAKLAARLYRKALARQLGVAA [MMI-0300]	53%	52%	56%	82%	104%	79%	95%	77%	2%	5%	44%	125%
